The results in this text go back to patent US12516294B2, “Method for producing mesenchymal stem cells from living body-derived cell sample containing mesenchymal stem cells” (AJINOMOTO CO., INC., priority 2019, dated 2026).

Entries after “also recorded” stand apart in the source; their conditions may differ.

Assay type in all cases: cell-based
In assay [1] the test system is MNC. The experiment in a line: MSC production by the kind of TGFβ receptor inhibitor (Example 4). Conditions: 10 μM SB431542, 0.5 μM A-83-01 or 0.5 μM LDN-193189 in medium for seeding; Vitronectin (20-398 aa) coating; day 12 (FIG. 7). The method, then:
MNC (Lonza) was thawed using the following medium for seeding (1), (2) or (3). The above-mentioned cells were seeded at a concentration of 2.6×10^6 cells/well in a 24-well plate coated with Vitronectin (20-398 aa) (wako) at a concentration of 1.5 μg/cm^2, and cultured under the conditions of 37° C., 5% CO2. The next day of seeding, the entire amount of the medium in the plate was replaced with a medium for seeding (1), (2) or (3), and the medium for seeding (1), (2) or (3) in an amount corresponding to 20% of the amount of the medium in the plate was further added on day 3 and day 5 after seeding. Medium for seeding (1): StemFit (registered trade mark) AKO3N medium (Ajinomoto Co., Inc.) SOLUTION A, ¼ StemFit (registered trade mark) AKO3N medium (Ajinomoto Co., Inc.) SOLUTION B, 3 ng/mL bFGF (peprotech), 10 μM SB431542 (Stemgent), 1/100 Lipid Concentrate (Life Technologies), 10 nM Dexamethasone (Sigma-Aldrich), 10 ng/mL PDGF-BB (FUJIFILM Wako Pure Chemical Industries, Ltd.), 1 mM Lithium Chloride (Sigma-Aldrich)
Medium for seeding (2): StemFit (registered trade mark) AKO3N medium (Ajinomoto Co., Inc.) SOLUTION A, ¼ StemFit (registered trade mark) AKO3N medium (Ajinomoto Co., Inc.) SOLUTION B, 3 ng/mL bFGF (peprotech), 0.5 μM A-83-01 (wako), 1/100 Lipid Concentrate (Life Technologies), 10 nM Dexamethasone (Sigma-Aldrich), 10 ng/mL PDGF-BB (FUJIFILM Wako Pure Chemical Industries, Ltd.), 1 mM Lithium Chloride (Sigma-Aldrich)
Medium for seeding (3): StemFit (registered trade mark) AKO3N medium (Ajinomoto Co., Inc.) SOLUTION A, ¼ StemFit (registered trade mark) AKO3N medium (Ajinomoto Co., Inc.) SOLUTION B, 3 ng/mL bFGF (peprotech), 0.5 μM LDN-193189 (Stemgent), 1/100 Lipid Concentrate (Life Technologies), 10 nM Dexamethasone (Sigma-Aldrich), 10 ng/mL PDGF-BB (FUJIFILM Wako Pure Chemical Industries, Ltd.), 1 mM Lithium Chloride (Sigma-Aldrich) […]
After confirming that the cells became sub-confluent, the cells were passaged on day 12 after seeding, and the number of cells was measured.

In assay [2] the test system is bone marrow mononuclear cells (MNC). The experiment in a line: Formation of MSC cell aggregates from MNC seeded on coated plates in serum-free medium (Example 1). The following applies: plate coated at 1.5 μg/cm^2 at MNC seeding, day 5 after seeding, compared with Fibronectin coating. The procedure:
(§1) Due to the limitations of purification techniques, bone marrow mononuclear cells (MNC) separated from bone marrow are slightly contained with mesenchymal stem cells (MSC). In this Example, a method for producing MSC from MNC by using a serum-free medium is verified. Bone marrow mononuclear cells (MNC) (Lonza) were thawed using the following medium for seeding. The above-mentioned cells were seeded at a concentration of 2.6×10^6 cells/well in a 24-well plate coated with Fibronectin (Sigma) or Vitronectin (wako) each at a concentration of 1.5 μg/cm^2, and cultured under the conditions of 37° C., 5% CO2. The next day of seeding, the entire amount of the medium in the plate was replaced with a medium for seeding, and the medium for seeding in an amount corresponding to 20% of the amount of the medium in the plate was further added on day 3 and day 5 after seeding. Medium for seeding: StemFit (registered trade mark) AKO3N medium (Ajinomoto Co., Inc.) SOLUTION A, StemFit (registered trade mark) AKO3N medium (Ajinomoto Co., Inc.) SOLUTION B, 3 ng/mL bFGF (peprotech), 10 μM 5B431542 (Stemgent), 1/100 Lipid Concentrate (Life Technologies), 10 nM Dexamethasone (Sigma-Aldrich), 10 ng/mL PDGF-BB (FUJIFILM Wako Pure Chemical Industries, Ltd.), 1 mM Lithium Chloride (Sigma-Aldrich)

Assay [3] shares this test system. As to the kind of experiment: Number of cells after re-seeding of dissociated aggregates (Example 1). The following applies: coating at MNC seeding 1.5 μg/cm^2, aggregates re-seeded day 7, counted day 13, compared with Fibronectin coating. The method, then:
as §1, with “Medium for seeding: StemFit (registered trade mark) AKO3N medium (Ajinomoto Co., Inc.) SOLUTION A, StemFit (registered trade mark) AKO3N medium (Ajinomoto Co., Inc.) SOLUTION B, 3 ng/mL bFGF (peprotech), 10 μM 5B431542 (Stemgent), 1/100 Lipid Concentrate (Life Technologies), 10 nM Dexamethasone (Sigma-Aldrich), 10 ng/mL PDGF-BB (FUJIFILM Wako Pure Chemical Industries, Ltd.), 1 mM Lithium Chloride (Sigma-Aldrich)” left out
After confirming that the cells became sub-confluent, the cells were passaged on day 13 after seeding, and the number of cells was measured.

The subject of assay [4] is MNC. The experiment in a line: MSC production from MNC by the kind of Vitronectin (Example 2). Conditions: coating 1.5 μg/cm^2, 2.6×10^6 cells/well, 13 days after MNC seeding (FIG. 4). The procedure:
MNC (Lonza) was thawed using the following medium for seeding (serum-free). The above-mentioned cells were seeded at a concentration of 2.6×10^6 cells/well in 24-well plates coated with Vitronectin (20-398 aa) (wako) (corresponding to amino acid Nos. 1-379 of SEQ ID NO: 1), Vitronectin (VTN-N, 62-478 aa) (Life Technologies) (corresponding to amino acid Nos. 43-459 of SEQ ID NO: 1) or Vitronectin (Full length, 20-478 aa) (Sigma) (corresponding to SEQ ID NO: 1) at a concentration of 1.5 μg/cm^2, and cultured under the conditions of 37° C., 5% CO2. In addition, the cells were seeded at a concentration of 1.6×10^6 cells/well in a 24-well plate coated with Vitronectin (20-398 aa) (wako) or Synthemax II (CORNING) at concentrations of 1.5 μg/cm^2 and 5.0 μg/cm^2, respectively, and cultured under the conditions of 37° C., 5% CO2. Synthemax II is a vitronectin-based synthetic peptide containing RGD motif and flanking sequence. The next day of seeding, the entire amount of the medium in the plate was replaced with a medium for seeding, and the medium for seeding in an amount corresponding to 20% of the amount of the medium in the plate was further added on day 3 and day 5 after seeding. […]
After confirming that the cells became sub-confluent, the cells were passaged on days 12 and 13 after seeding, and the number of cells was measured.

On to `Cc1cccc(-c2nn(C(=S)Nc3ccccc3)cc2-c2ccnc3ccccc23)n1` [A-83-01], for which, in the assay with MNC [1], the “MSC production from MNC (number of MSC)” value is listed as “MSC could be efficiently produced from MNC”. As to `c1ccc2c(-c3cnn4cc(-c5ccc(N6CCNCC6)cc5)cnc34)ccnc2c1` [LDN-193189], the “MSC production from MNC (number of MSC)” value in the assay with MNC [1] is reported as “MSC could be efficiently produced from MNC”. Regarding `NC(=O)c1ccc(-c2nc(-c3ccc4c(c3)OCO4)c(-c3ccccn3)[nH]2)cc1` [SB431542], the “MSC production from MNC (number of MSC)” value in the assay on MNC [1] is reported as “MSC could be efficiently produced from MNC”.

B1: Vitronectin: Vitronectin (wako) used to coat 24-well plates at 1.5 μg/cm^2 in Example 1 (protein, UniProt P04004 20-478, looked up)
Vitronectin: DQESCKGRCTEGFNVDKKCQCDELCSYYQSCCTDYTAECKPQVTRGDVFTMPEDEYTVYDDGEEKNNATVHEQVGGPSLTSDLQAQSKGNPEQTPVLKPEEEAPAPEVGASKPEGIDSRPETLHPGRPQPPAEEELCSGKPFDAFTDLKNGSLFAFRGQYCYELDEKAVRPGYPKLIRDVWGIEGPIDAAFTRINCQGKTYLFKGSQYWRFEDGVLDPDYPRNISDGFDGIPDNVDAALALPAHSYSGRERVYFFKGKQYWEYQFQHQPSQEECEGSSLSAVFEHFAMMQRDSWEDIFELLFWGRTSAGTRQPQFISRDWHGVPGQVDAAMAGRIYISGMAPRPSLAKKQRFRHRNRKGYRSQRGHSRGRNQNSRRPSRATWLSLFSSEESNLGANNYDDYRMDWLVPATCEPIQSVFFFSGDKYYRVNLRTRRVDTVDPPYPRSIAQYWLGCPAPGHL
In the case of B1, in assay [2], the “number of cell aggregates obtained” value was “More cell aggregates were formed; also recorded: larger”. The figures for the “number of cells obtained by the subsequent re-seeding” value in assay [3] and in assay [3] (listed as vitronectin) were “larger” and “remarkably higher”, respectively.

B2: Vitronectin (20-398 aa) (wako): commercially available partial peptide of vitronectin, corresponding to amino acid Nos. 1-379 of SEQ ID NO: 1 (protein, listed as Homo sapiens)
chain: DQESCKGRCTEGFNVDKKCQCDELCSYYQSCCTDYTAECKPQVTRGDVFTMPEDEYTVYDDGEEKNNATVHEQVGGPSLTSDLQAQSKGNPEQTPVLKPEEEAPAPEVGASKPEGIDSRPETLHPGRPQPPAEEELCSGKPFDAFTDLKNGSLFAFRGQYCYELDEKAVRPGYPKLIRDVWGIEGPIDAAFTRINCQGKTYLFKGSQYWRFEDGVLDPDYPRNISDGFDGIPDNVDAALALPAHSYSGRERVYFFKGKQYWEYQFQHQPSQEECEGSSLSAVFEHFAMMQRDSWEDIFELLFWGRTSAGTRQPQFISRDWHGVPGQVDAAMAGRIYISGMAPRPSLAKKQRFRHRNRKGYRSQRGHSRGRNQNSRRPSR
On to B2, for which, in the assay with MNC [4], the “MSC production from MNC (number of MSC)” value was “could produce MSC most efficiently from MNC”.
